According to publication PMC2933787:

Assays:
Test in all cases: EMSA
DmTHAP H18A = biological target: T1, DmTHAP H18A (Drosophila melanogaster, UniProt Q7M3K2 1-77, H18A)
T1 sequence: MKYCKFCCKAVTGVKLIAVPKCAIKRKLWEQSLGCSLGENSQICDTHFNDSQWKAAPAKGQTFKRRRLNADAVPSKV

DmTHAP dY2,K3 = biological target: T2, DmTHAP dY2,K3 (Drosophila melanogaster, UniProt Q7M3K2 1-77, del2-3)
T2 sequence: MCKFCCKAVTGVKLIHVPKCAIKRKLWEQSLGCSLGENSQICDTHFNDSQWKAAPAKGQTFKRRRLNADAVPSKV

DmTHAP H18A Q42A = biological target: T3, DmTHAP H18A Q42A (Drosophila melanogaster, UniProt Q7M3K2 1-77, H18A;Q42A)
T3 sequence: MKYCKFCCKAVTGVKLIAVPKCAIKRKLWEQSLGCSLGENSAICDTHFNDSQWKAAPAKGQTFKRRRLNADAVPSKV

DmTHAP Q42A = biological target: T4, DmTHAP Q42A (Drosophila melanogaster, UniProt Q7M3K2 1-77, Q42A)
T4 sequence: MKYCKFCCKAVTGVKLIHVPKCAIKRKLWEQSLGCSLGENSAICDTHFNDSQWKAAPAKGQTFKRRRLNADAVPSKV

DmTHAP R65A = biological target: T5, DmTHAP R65A (Drosophila melanogaster, UniProt Q7M3K2 1-77, R65A)
T5 sequence: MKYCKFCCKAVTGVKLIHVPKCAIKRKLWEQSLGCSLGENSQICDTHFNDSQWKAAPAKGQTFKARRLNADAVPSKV

DmTHAP R65A R67A = biological target: T6, DmTHAP R65A R67A (Drosophila melanogaster, UniProt Q7M3K2 1-77, R65A;R67A)
T6 sequence: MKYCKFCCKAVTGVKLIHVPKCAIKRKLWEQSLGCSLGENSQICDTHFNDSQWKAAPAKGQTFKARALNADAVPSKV

DmTHAP R67A = biological target: T7, DmTHAP R67A (Drosophila melanogaster, UniProt Q7M3K2 1-77, R67A)
T7 sequence: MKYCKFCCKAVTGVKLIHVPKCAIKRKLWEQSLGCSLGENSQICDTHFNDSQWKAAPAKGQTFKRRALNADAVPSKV

[1] = biological target: T8, DmTHAP (P element transposase THAP domain) (Drosophila melanogaster, UniProt Q7M3K2 1-77)
T8 sequence: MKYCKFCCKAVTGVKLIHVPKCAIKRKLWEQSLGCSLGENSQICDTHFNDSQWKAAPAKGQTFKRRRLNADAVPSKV

DmTHAP R66A = biological target: T9, DmTHAP R66A (Drosophila melanogaster, UniProt Q7M3K2 1-77, R66A)
T9 sequence: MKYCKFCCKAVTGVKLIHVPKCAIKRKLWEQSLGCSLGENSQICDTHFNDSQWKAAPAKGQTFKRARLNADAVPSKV

B1: 15mer duplex with transposase site (dsDNA)
DNA 1: GAGGTTAAGTGGATGT
DNA 2: TACATCCACTTAAC
DmTHAP H18A
  binding signal: ~12 fold reduction in affinity vs WT
DmTHAP dY2,K3
  binding signal: ~3 fold reduction in affinity vs WT
DmTHAP H18A Q42A
  binding signal: ~20 fold reduction in affinity vs WT
DmTHAP Q42A
  binding signal: ~15 fold reduction in affinity vs WT
DmTHAP R65A
  binding signal: ~21 fold reduction in affinity vs WT
DmTHAP R65A R67A
  binding signal: ~42 fold reduction in affinity vs WT
DmTHAP R67A
  binding signal: ~17 fold reduction in affinity vs WT
[1]
  binding signal: 1 fold reduction in affinity vs WT (reference)
DmTHAP R66A
  binding result: no binding
